From patent US20150266974A1 (RINAT NEUROSCIENCE, published 2015)
Residue numbers refer to the chain shown, from its start. Names and notes keep the numbering of the source.

B1: anti-IgE antibody 5.948-H100Y (Fab) (Fab, V domains shown)
VH: QVQLVQSGAEVKKPGASVKVSCKASGYTFTSYDINWVRQATGQGLEWMGWMDPNSGNTGYAQKFQGRVTMTRNTSISTAYMELSSLRSEDTAVYYCARGYYDSDGYYSFSGMDVWGQGTTVTVSS
VL: not shown
notes: Injected as purified Fab fragment
B2: L38H312H100Y (Fab) (Fab, V domains shown)
VH: B1 VH with S110H
VL: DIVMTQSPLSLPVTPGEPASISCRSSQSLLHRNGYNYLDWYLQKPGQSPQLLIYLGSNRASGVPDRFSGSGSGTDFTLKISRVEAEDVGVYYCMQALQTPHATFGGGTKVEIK
B3: H17H25H100Y (Fab) (Fab, V domains shown)
VH: B1 VH with Y32H, N54H
VL: not shown
B4: H25H100Y (Fab) (Fab, V domains shown)
VH: B1 VH with N54H
VL: not shown

What follows are binders tested against T1, human IgE-Fc (Ch2-Ch3-Ch4), minimally biotinylated (human, UniProt P01854-1 105-428, limits assumed, minimally biotinylated with EZ-Link NHS-LC-LC-biotin (sites not given)) (assay: SPR Biacore T200, kd at pH 6.0 over kd at pH 7.4).
T1 construct: domain: Ch2-Ch3-Ch4; Captured on NeutrAvidin chip; also called IgE construct; B-IgE
Description: (§1) A biotin-capture surface was prepared by immobilization of NeutrAvidin: all flow cells of a Biacore CM4 sensor chip were activated with a 1:1 (v/v) mixture of 400 mM EDC and 100 mM NHS for 7 minutes, at a flow rate of 10 μL/min. NeutrAvidin (Pierce, product #: 31000) was diluted to 100 μg/mL in 10 mM Sodium Acetate pH 4.5 and injected on all flow cells for 7 minutes at 20 μL/min. All flow cells were blocked with 100 mM Ethylenediamine in 150 mM Borate buffer pH 8.5 for 7 minutes at 10 μL/min.
(§2) Following capture of B-IgE, a purified Fab fragment was injected at 30 μL/min on analysis and reference flow cells in a series of injections from low to high concentration. The top concentration of Fab ranged from 30 nM to 200 nM and the dilution factor was 3-fold. Each Fab dilution was injected for 2 minutes, followed by a final dissociation time of 30 minutes after the last injection. A similar set of injections was performed with running buffer in place of Fab for double-referencing purposes (double-referencing as described in Myszka, J Mol Recognit 12: 279-284, 1999). The double-referenced sensorgrams were fit globally to a simple 1:1 Langmuir with mass transport binding model.
(§3) The experiments were performed at pH 6.0 and 7.4 using sample and running buffers of 10 mM Sodium Phosphate, 150 mM Sodium Chloride, 0.05% Tween-20, 1 mg/mL BSA, pH 6 and 10 mM Sodium Phosphate, 150 mM Sodium Chloride, 0.05% Tween-20, 1 mg/mL BSA, pH 7.4, respectively.

T1 sequence (P01854 other isoform, or with tags, fused parts or gaps limits assumed): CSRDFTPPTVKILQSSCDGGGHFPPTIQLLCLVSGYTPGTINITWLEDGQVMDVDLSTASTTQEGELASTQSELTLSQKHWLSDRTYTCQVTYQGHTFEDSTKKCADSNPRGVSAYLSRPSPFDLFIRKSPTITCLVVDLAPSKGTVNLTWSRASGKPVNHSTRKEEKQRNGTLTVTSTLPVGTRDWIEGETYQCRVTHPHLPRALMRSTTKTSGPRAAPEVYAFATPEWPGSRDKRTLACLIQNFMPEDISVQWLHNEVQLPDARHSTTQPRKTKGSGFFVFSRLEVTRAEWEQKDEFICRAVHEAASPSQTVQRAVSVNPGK

| kd ratio pH 6/pH 7.4 | Binder |
| --- | --- |
| 3.03 | B1 |
| 11.3 | B2 |
| 8.63 | B3 |
| 7.66 | B4 |

What follows are binders tested against T1, human IgE-Fc (Ch2-Ch3-Ch4), minimally … (assay: SPR Biacore T200, biotin-IgE-Fc captured, Fab injected, 25 C, pH 7.4).
Description: (§4) All Biacore experiments were performed using two of the four flow cells (1&2 or 3&4) of the sensor chip in parallel. The downstream flow cell was used as analysis flow cell while the other flow cell was used as a reference surface. Thus, biotinylated IgE (B-IgE) was captured on the analysis flow cell and every purified Fab fragment was injected over both. The sensorgram from the reference flow cell was subtracted from that of the analysis flow cell.
as §2, §3

| Kd [nM] | koff [s⁻¹] | kon [M⁻¹ s⁻¹] | Binder |
| --- | --- | --- | --- |
| 0.0487 | 5.01e-05 | 1.03e+06 | B1 |
| 5.33 | 0.00108 | 202000 | B2 |
| 1.9 | 0.000422 | 222000 | B3 |
| 0.634 | 0.000197 | 311000 | B4 |

What follows are binders tested against T1, human IgE-Fc (Ch2-Ch3-Ch4), minimally … (assay: SPR Biacore T200, KD at pH 6.0 over KD at pH 7.4).
Description: as §4, §2, §3

| KD ratio pH 6.0/pH 7.4 | Binder |
| --- | --- |
| 3.1 | B1 |
| 7 | B2 |
| 8.6 | B3 |
| 8 | B4 |

The binders below were run against T1, human IgE-Fc (Ch2-Ch3-Ch4), minimally … (assay: SPR Biacore T200, biotin-IgE-Fc captured, Fab injected, 25 C, pH 6.0).
Description: as §1, §2, §3

| Kd [nM] | koff [s⁻¹] | kon [M⁻¹ s⁻¹] | Binder |
| --- | --- | --- | --- |
| 0.149 | 0.000152 | 1.02e+06 | B1 |
| 37.1 | 0.0122 | 329000 | B2 |
| 16.3 | 0.00364 | 223000 | B3 |
| 5.08 | 0.00151 | 298000 | B4 |
